According to patent publication US20110243927A1:

Target: β5 integrin (human, ITGB5) (human)
Test: cell-based or functional assay

anti-β5 integrin subunit monoclonal antibody KN52 (eBiosciences)
% Inhibition of cell growth, SKBr3 cells, SRB assay, 5 days, antibody alone at 0.08 µg/ml (trastuzumab 0): 30% | % Inhibition of cell growth, SKBr3 cells, SRB assay, 5 days, antibody alone at 0.4 µg/ml (trastuzumab 0): 43.7% | % Inhibition of cell growth, SKBr3 cells, SRB assay, 5 days, antibody alone at 2 µg/ml (trastuzumab 0): 52.6% | % Inhibition of cell growth, SKBr3 cells, SRB assay, 5 days, antibody alone at 10 µg/ml (trastuzumab 0): 71.5% | % Inhibition of cell growth, SKBr3 cells, SRB assay, 5 days, antibody alone at 50 µg/ml (trastuzumab 0): 76.2% | Inhibition of cell proliferation, 184-A1 (normal breast cell line), 10 µg/ml, 4 days, vs isotype control: 0% | Inhibition of cell proliferation, 231 (breast), 10 µg/ml, 4 days, vs isotype control: 23% | Inhibition of cell proliferation, 435 (breast), 10 µg/ml, 4 days, vs isotype control: 33.7% | Inhibition of cell proliferation, 453 (breast), 10 µg/ml, 4 days, vs isotype control: 24.9% | Inhibition of cell proliferation, 468 (breast), 10 µg/ml, 4 days, vs isotype control: 44.3% | Inhibition of cell proliferation, A172 (brain), 10 µg/ml, 4 days, vs isotype control: 90% | Inhibition of cell proliferation, A549 (lung), 10 µg/ml, 4 days, vs isotype control: 60 to 80% | Inhibition of cell proliferation, BT-474 (breast), 10 µg/ml, 4 days, vs isotype control: 0% | Inhibition of cell proliferation, CaoV3 (ovary), 10 µg/ml, 4 days, vs isotype control: 45.9% | Inhibition of cell proliferation, Colo205 (colon), 10 µg/ml, 4 days, vs isotype control: 27.2% | Inhibition of cell proliferation, Du145 (prostate), 10 µg/ml, 4 days, vs isotype control: 17.1% | Inhibition of cell proliferation, Du-4475 (breast), 10 µg/ml, 4 days, vs isotype control: 2.13% | Inhibition of cell proliferation, H358 (lung), 10 µg/ml, 4 days, vs isotype control: 30.1% | Inhibition of cell proliferation, H460 (lung), 10 µg/ml, 4 days, vs isotype control: 39.7% | Inhibition of cell proliferation, HCC-1419 (breast), 10 µg/ml, 4 days, vs isotype control: 20.9% | Inhibition of cell proliferation, HCC-1954 (breast), 10 µg/ml, 4 days, vs isotype control: 39.3% | Inhibition of cell proliferation, HCT8 (colon), 10 µg/ml, 4 days, vs isotype control: 33% | Inhibition of cell proliferation, HCT15 (colon), 10 µg/ml, 4 days, vs isotype control: 58.7% | Inhibition of cell proliferation, HMEC C (normal human mammary epithelial cells), 10 µg/ml, 4 days, vs isotype control: 0% | Inhibition of cell proliferation, MCF7 (breast), 10 µg/ml, 4 days, vs isotype control: 49.1% | Inhibition of cell proliferation, PC3 (prostate), 10 µg/ml, 4 days, vs isotype control: 11.2% | Inhibition of cell proliferation, SK-N-SH (brain), 10 µg/ml, 4 days, vs isotype control: 40% | Inhibition of cell proliferation, SKBr3 (breast), 10 µg/ml, 4 days, vs isotype control: 26.2% | Inhibition of cell proliferation, SW480 (colon), 10 µg/ml, 4 days, vs isotype control: 30.2% | Inhibition of cell proliferation, SW620 (colon), 10 µg/ml, 4 days, vs isotype control: 48.5% | Inhibition of cell proliferation, SW626 (ovary), 10 µg/ml, 4 days, vs isotype control: 29.7% | Inhibition of cell proliferation, SW1783 (listed under colon), 10 µg/ml, 4 days, vs isotype control: 26.6% | Inhibition of cell proliferation, Skov3 (ovary), 10 µg/ml, 4 days, vs isotype control: 15.1% | Inhibition of cell proliferation, T47D (breast), 10 µg/ml, 4 days, vs isotype control: 30.9%
